The array DNA melting data of Ke et al.

Experiment: melting temperature; melt of duplexes
Details: sodium 0.0675 M; strand 1 µM
Work on “CGACGTGCTTTATGTGCTG+CAGCACATCTCGCACGTCG ((((((((...((((((((+))))))))...))))))))” yielded a Tm of 46.5 °C. With “CGACGTGCTTTATGTGCTG+CAGCACATCTTGCACGTCG ((((((((...((((((((+))))))))...))))))))” the Tm was 48.5 °C. Work on “CGACGTGCTTTATGTGCTG+CAGCACATGACGCACGTCG ((((((((.(.((((((((+)))))))).).))))))))” yielded a Tm of 47.1 °C. With “CGACGTGCTTTATGTGCTG+CAGCACATGAGGCACGTCG ((((((((.(.((((((((+)))))))).).))))))))” the Tm was 52.8 °C. Substance “CGACGTGCTTTATGTGCTG+CAGCACATGCTGCACGTCG ((((((((...((((((((+))))))))...))))))))” has a Tm of 46.2 °C. “CGACGTGCTTTATGTGCTG+CAGCACATGGAGCACGTCG (((((((((..((((((((+))))))))..)))))))))” showed a Tm of 54.2 °C. Work on “CGACGTGCTTTATGTGCTG+CAGCACATGGGGCACGTCG ((((((((...((((((((+))))))))...))))))))” yielded a Tm of 51 °C. Substance “CGACGTGCTTTATGTGCTG+CAGCACATGTCGCACGTCG ((((((((...((((((((+))))))))...))))))))” has a Tm of 47.8 °C. With “CGACGTGCTTTATGTGCTG+CAGCACATGTGGCACGTCG ((((((((...((((((((+))))))))...))))))))” the Tm was 49.6 °C. With “CGACGTGCTTTATGTGCTG+CAGCACATTAAGCACGTCG ((((((((((.((((((((+)))))))).))))))))))” the Tm was 55.2 °C. “CGACGTGCTTTATGTGCTG+CAGCACATTACGCACGTCG ((((((((.(.((((((((+)))))))).).))))))))” gave a Tm of 48.7 °C. “CGACGTGCTTTATGTGCTG+CAGCACATTCAGCACGTCG (((((((((..((((((((+))))))))..)))))))))” showed a Tm of 50.5 °C. For “CGACGTGCTTTATGTGCTG+CAGCACATTGCGCACGTCG ((((((((...((((((((+))))))))...))))))))”, the Tm was 46.4 °C. Substance “CGACGTGCTTTATGTGCTG+CAGCACATTGTGCACGTCG ((((((((...((((((((+))))))))...))))))))” has a Tm of 45.1 °C. Substance “CGACGTGCTTTATGTGCTG+CAGCACATTTCGCACGTCG ((((((((...((((((((+))))))))...))))))))” has a Tm of 47.7 °C. In the case of “CGACGTGCTTTATGTGCTG+CAGCACATTTTGCACGTCG ((((((((...((((((((+))))))))...))))))))”, the Tm is reported as 49.5 °C.

Experiment: melting temperature; UV melt of duplexes
Details: sodium 0.07 M; strand 2 µM
In the case of “AAAGGTGTCGCGGAGAGTCGTGCTG+CAGCACGACTCTCCGCGACACCTTT (((((((((((((((((((((((((+)))))))))))))))))))))))))”, the Tm is reported as 69.6 °C. Substance “ACGCCCACAGGATTAGGCTGGCCCACATTG+CAATGTGGGCCAGCCTAATCCTGTGGGCGT ((((((((((((((((((((((((((((((+))))))))))))))))))))))))))))))” has a Tm of 71.3 °C.

Same assay, conditions: sodium 0.12 M; strand 2 µM
For “AAAGGTGTCGCGGAGAGTCGTGCTG+CAGCACGACTCTCCGCGACACCTTT (((((((((((((((((((((((((+)))))))))))))))))))))))))”, the Tm was 73.6 °C. Substance “ACGCCCACAGGATTAGGCTGGCCCACATTG+CAATGTGGGCCAGCCTAATCCTGTGGGCGT ((((((((((((((((((((((((((((((+))))))))))))))))))))))))))))))” has a Tm of 74.7 °C.

Same assay, conditions: sodium 0.12 M; strand 4 µM
In the case of “AATATATAGCTATCGAT+ATCGATAGCTATATATT (((((((((((((((((+)))))))))))))))))”, the Tm is reported as 49.7 °C.

Same assay, conditions: sodium 0.12 M; strand 4.4 µM
In the case of “AATATATATGAATTCTAATTATAA+TTATAATTAGAATTCATATATATT ((((((((((((((((((((((((+))))))))))))))))))))))))”, the Tm is reported as 46.2 °C.

Same assay, conditions: sodium 0.12 M; strand 5 µM
With “AAATATAGCTATATTT+AAATATAGCTATATTT ((((((((((((((((+))))))))))))))))” the Tm was 40.4 °C. “AAGCTATATATATCGAT+ATCGATATATATAGCTT (((((((((((((((((+)))))))))))))))))” gave a Tm of 50.2 °C. “AATATATATAGAGTAATTATAA+TTATAATTACTCTATATATATT ((((((((((((((((((((((+))))))))))))))))))))))” gave a Tm of 45.1 °C.

Same assay, conditions: sodium 0.12 M; strand 5.9 µM
“AACGCCGGTAGAGTGCGCGCAA+TTGCGCGCACTCTACCGGCGTT ((((((((((((((((((((((+))))))))))))))))))))))” gave a Tm of 79.1 °C.

Same assay, conditions: sodium 0.12 M; strand 6 µM
Work on “AACGCGCGTAGAGTGGCCGCAA+TTGCGGCCACTCTACGCGCGTT ((((((((((((((((((((((+))))))))))))))))))))))” yielded a Tm of 77.3 °C. In the case of “AACGCGTGAATTCTGGCCAA+TTGGCCAGAATTCACGCGTT ((((((((((((((((((((+))))))))))))))))))))”, the Tm is reported as 66.6 °C. “AATATATATAGAGTGGCCGCAA+TTGCGGCCACTCTATATATATT ((((((((((((((((((((((+))))))))))))))))))))))” showed a Tm of 65.2 °C. “AATATGAATTCTAATA+TATTAGAATTCATATT ((((((((((((((((+))))))))))))))))” gave a Tm of 41.4 °C.

Same assay, conditions: sodium 0.12 M; strand 7 µM
For “AAATAAATAGCTATTTATTT+AAATAAATAGCTATTTATTT ((((((((((((((((((((+))))))))))))))))))))”, the Tm was 47.1 °C. Work on “AAATATAAGAATTCTTATATTT+AAATATAAGAATTCTTATATTT ((((((((((((((((((((((+))))))))))))))))))))))” yielded a Tm of 48.9 °C.

Same assay, conditions: sodium 0.22 M; strand 2 µM
“AAAGGTGTCGCGGAGAGTCGTGCTG+CAGCACGACTCTCCGCGACACCTTT (((((((((((((((((((((((((+)))))))))))))))))))))))))” showed a Tm of 77.4 °C. Substance “ACGCCCACAGGATTAGGCTGGCCCACATTG+CAATGTGGGCCAGCCTAATCCTGTGGGCGT ((((((((((((((((((((((((((((((+))))))))))))))))))))))))))))))” has a Tm of 78.5 °C.

Same assay, conditions: sodium 0.62 M; strand 2 µM
In the case of “AAAGGTGTCGCGGAGAGTCGTGCTG+CAGCACGACTCTCCGCGACACCTTT (((((((((((((((((((((((((+)))))))))))))))))))))))))”, the Tm is reported as 81.2 °C. “ACGCCCACAGGATTAGGCTGGCCCACATTG+CAATGTGGGCCAGCCTAATCCTGTGGGCGT ((((((((((((((((((((((((((((((+))))))))))))))))))))))))))))))” gave a Tm of 82.7 °C.

Same assay, conditions: sodium 1.02 M; strand 2 µM
Substance “AAAGGTGTCGCGGAGAGTCGTGCTG+CAGCACGACTCTCCGCGACACCTTT (((((((((((((((((((((((((+)))))))))))))))))))))))))” has a Tm of 82.4 °C. For “ACGCCCACAGGATTAGGCTGGCCCACATTG+CAATGTGGGCCAGCCTAATCCTGTGGGCGT ((((((((((((((((((((((((((((((+))))))))))))))))))))))))))))))”, the Tm was 84 °C.
